Patent publication US20090265797A1 (PIERRE FABRE MEDICAMENT, published 2009)

B1: Humanized I-3466 IgG1 antibody (antibody, V domains shown)
VH: EVQLVESGGDLVQPGGSLRLSCAASGFTFNNYIMSWVRQAPGKGLEWVATISGGGSYTFYPDSVKGRFTISRDNSKNTLYLQMNSLRAEDTAVYFCTRNQLLTGMINPLTTPRAWFTYWGQGTLVTVSS
VL: DIVMTQSPDSLAVSLGERATINCKSSQSLLDSRTRKNYLAWYQQKPGQPPKLLIYWASTRESGVPDRFSGSGSGTDFTLTISSLQAEDVAVYYCKQSYNLFTFGGGTKVEIK
B2: murine monoclonal antibody I-3466 (antibody, V domains shown)
VH: EVMLVESGGDLVKPGGSLKLSCAASGFTFNNYIMSWVRQTPEKRLEWVATISGGGSYTFYPDSVKGRFSISRDNAKNTLYLQMSSLRSEDTAMYFCTRNQLLTGMINPLTTPRAWFTYWGQGTLVTVSA
VL: DIVMSQSPSSLAVSAGEKVTMNCKSSQSLLDSRTRKNYLAWYQQKPGQSPKLLIYWASTRESGVPDRFTGSGSGTDFTLTISSVQAEDLAVYYCKQSYNLFTFGGGTKLEIK
notes: a mouse IgG1 (9G4) served as its isotype control

What was measured:
[1] = target: soluble human insulin-like growth factor-1 receptor (hIGF-IR) extra-cellular domain (ECD) (human) (UniProt P08069); assay: SPR, BIAcore T100, 25 °C; antibody captured by anti-human IgG Fc on CM5, hIGF-IR-ECD as analyte; KD = kd/ka
[2] = target: soluble human insulin-like growth factor-1 receptor (hIGF-IR) extra-cellular domain (ECD) (human) (UniProt P08069); assay: SPR, BIAcore T100, 25 °C; antibody captured by anti-human IgG Fc on CM5, hIGF-IR-ECD as analyte (6.25-100 nM)
[3] = target: IGF-IR on MCF-7 or HT29 cells (human, UniProt P08069 31-1367); assay: cell-based or functional assay
IGF-IR on MCF-7 or HT29 cells, sequence (P08069 31-1367): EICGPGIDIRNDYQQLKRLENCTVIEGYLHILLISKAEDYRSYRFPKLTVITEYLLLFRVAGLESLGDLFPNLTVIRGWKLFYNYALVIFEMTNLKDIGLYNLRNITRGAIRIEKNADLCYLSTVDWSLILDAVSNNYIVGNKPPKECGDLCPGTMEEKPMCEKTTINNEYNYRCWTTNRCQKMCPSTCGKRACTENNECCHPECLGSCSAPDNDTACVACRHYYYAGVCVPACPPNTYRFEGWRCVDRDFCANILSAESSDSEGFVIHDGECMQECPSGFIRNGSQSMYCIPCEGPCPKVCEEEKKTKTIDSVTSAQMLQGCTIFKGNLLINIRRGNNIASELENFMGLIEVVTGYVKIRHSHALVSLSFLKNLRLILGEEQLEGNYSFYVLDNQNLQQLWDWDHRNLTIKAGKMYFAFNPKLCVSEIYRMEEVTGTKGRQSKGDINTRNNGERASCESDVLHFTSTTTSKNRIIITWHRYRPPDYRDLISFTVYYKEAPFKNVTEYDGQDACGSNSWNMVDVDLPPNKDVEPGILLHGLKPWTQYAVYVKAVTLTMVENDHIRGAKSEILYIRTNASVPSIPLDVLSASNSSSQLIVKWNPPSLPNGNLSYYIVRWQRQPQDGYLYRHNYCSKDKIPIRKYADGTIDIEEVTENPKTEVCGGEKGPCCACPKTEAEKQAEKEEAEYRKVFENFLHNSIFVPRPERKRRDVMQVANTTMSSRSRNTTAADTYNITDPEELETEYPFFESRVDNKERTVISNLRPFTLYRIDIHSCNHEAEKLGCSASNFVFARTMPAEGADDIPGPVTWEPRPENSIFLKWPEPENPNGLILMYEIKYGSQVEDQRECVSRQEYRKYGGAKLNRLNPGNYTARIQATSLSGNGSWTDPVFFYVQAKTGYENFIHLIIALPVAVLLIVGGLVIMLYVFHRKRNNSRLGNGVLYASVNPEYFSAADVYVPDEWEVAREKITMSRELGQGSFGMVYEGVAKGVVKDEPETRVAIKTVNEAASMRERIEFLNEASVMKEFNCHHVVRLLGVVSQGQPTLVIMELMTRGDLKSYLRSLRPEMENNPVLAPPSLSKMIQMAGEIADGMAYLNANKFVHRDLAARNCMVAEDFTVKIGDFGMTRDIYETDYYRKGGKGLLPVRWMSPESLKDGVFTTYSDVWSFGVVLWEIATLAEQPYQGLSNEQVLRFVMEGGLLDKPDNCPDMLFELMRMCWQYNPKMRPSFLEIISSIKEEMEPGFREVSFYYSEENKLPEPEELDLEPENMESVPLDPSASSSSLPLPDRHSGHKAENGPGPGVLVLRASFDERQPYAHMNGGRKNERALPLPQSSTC

[4] = target: T1, human IGF-IR (hIGF-IR) from membrane lysate of NIH 3T3 cells stably transfected with the human IGF-IR cDNA, … (human, UniProt P08069 31-1367); assay: competition of 100 pM [125I]-IGF1 binding to immobilized hIGF-IR; reference: unlabeled IGF1
T1 construct: Whole receptor (alpha and beta subunits from one precursor) solubilised from membranes, not on cells; also called immobilized hIGF-IR; human IGF-1 receptor
T1 sequence (P08069 31-1367 limits assumed): as the sequence (P08069 31-1367) above
Experimental: (§1) Two hundred μl of a 20 μg/ml antibody solution in PBS were added to each well and incubated overnight at +4° C. The buffer containing residual 17-69 not attached to protein A was removed by aspiration. Two hundred μl of the membrane lysate at 100 μg/ml were further added and incubated for 2 h at room temperature to immobilize IGF-IR. Non captured proteins were removed by aspiration. […] The plates were incubated at room temperature for 2 h, then counted on a Packard Top Count Microplate Scintillation Counter.
(§2) Concentrations of the various inhibitors required to inhibit the radioligand binding by 50% (IC₅₀) were determined graphically from the sigmoid competition curves obtained (FIGS. 1 and 2).

[5] = target: T1, human IGF-IR (hIGF-IR) from membrane …; assay: competition of 100 pM [125I]-IGF2 binding to hIGF-IR captured by antibody 17-69 on Protein A FlashPlate
Experimental: as §1, §2

[6] = target: T1, human IGF-IR (hIGF-IR) from membrane …; assay: competition of 100 pM [125I]-IGF1 binding to hIGF-IR captured by antibody 17-69 on Protein A FlashPlate; displacement of [^125I]-IGF1 (not [^125I]-IGF2) from immobilized hIGF-IR
Experimental: as §1, §2

| Kd [1] [nM] | koff [2] [s⁻¹] | kon [2] [M⁻¹ s⁻¹] | IC50 of inhibition of IGF1-induced proliferation of MCF-7 cells [3] [nM] | IC50 of inhibition of IGF2-induced proliferation of MCF-7 cells [3] [nM] | fold lower IC50 than non radiolabeled IGF1 [4] [fold] | IC50 [5] [nM] | IC50 [6] [nM] | Binder |
| --- | --- | --- | --- | --- | --- | --- | --- | --- |
| 0.342 | 6.29e-05 | 184000 |  |  |  |  |  | B1 |
|  |  |  | 0.7 | 0.5 | 30 | ~0.1 | 0.021 | B2 |
